Assay results published in article PMC4661877, “Enhancement of Chaperone Activity of Plant-Specific Thioredoxin through γ-Ray Mediated Conformational Change” (International Journal of Molecular Sciences, 2015).

Target: the molecule itself
Experiment: SEC; Superdex 200 10/300 GL, FPLC, 4 °C, 50 mM HEPES pH 8.0, 100 mM NaCl, 0.5 mL/min; size against standard proteins

B1: Arabidopsis thaliana tetratricopeptide domain-containing thioredoxin (AtTDX), non-irradiated (enzyme, UniProt Q8VWG7 1-380, looked up)
chain: MVDAIQVAELRRFVEQLKLNPSILHDPSLVFFKEYLRSLGAQVPKIEKTERDYEDKAETKPSFSPKHDDDDDDIMESDVELDNSDVVEPDNEPPQPMGDPTAEVTDENRDDAQSEKSKAMEAISDGRFDEAIEHLTKAVMLNPTSAILYATRASVFLKVKKPNAAIRDANVALQFNSDSAKGYKSRGMAKAMLGQWEEAAADLHVASKLDYDEEIGTMLKKVEPNAKRIEEHRRKYQRLRKEKELQRAERERRKQQEAQEREAQAALNDGEVISIHSTSELEAKTKAAKKASRLLILYFTATWCGPCRYMSPLYSNLATQHSRVVFLKVDIDKANDVAASWNISSVPTFCFIRDGKEVDKVVGADKGSLEQKIAQHSSSK
notes: AtTDX, Arabidopsis thaliana tetratricopeptide domain-containing thioredoxin; 380 amino acids, 42 kDa; three TPR domains at the amino terminus and a thioredoxin domain at the carboxyl terminus; Mixture of LMW (mainly tetrameric) and HMW forms; also called non-irradiated AtTDX; 0 kGy
In the case of B1, the “stoichiometry N” value is reported as 4.
